Experimental data published in patent US20190023739A1 (TOKUSHIMA UNIVERSITY, published 2019).

Target: T1, His-tagged recombinant PHB2 (UniProt Q99623 1-299, limits assumed)
T1 construct: also called prohibitin 2; REA; not shown: His tag
Assay: surface plasmon resonance (BiAcore) interaction analysis

T1 sequence (Q99623 whole entry): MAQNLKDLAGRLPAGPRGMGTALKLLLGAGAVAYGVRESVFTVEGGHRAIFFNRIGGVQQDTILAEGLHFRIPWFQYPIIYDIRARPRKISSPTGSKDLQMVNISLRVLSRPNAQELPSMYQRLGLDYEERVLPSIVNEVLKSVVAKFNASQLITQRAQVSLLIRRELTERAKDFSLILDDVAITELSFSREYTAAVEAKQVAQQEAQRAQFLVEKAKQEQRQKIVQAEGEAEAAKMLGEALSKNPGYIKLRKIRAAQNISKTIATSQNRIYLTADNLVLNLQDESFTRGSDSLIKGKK

- Kd: 12.8 µM
B1: 11R-ERAP (11R-GGG-QMLSDLTLQLRQR) (peptide)
peptide: RRRRRRRRRRRGGGQMLSDLTLQLRQR
notes: Unstapled control peptide, synthesized as in Yoshimaru et al. 2013; also called dominant negative peptide
